In experiment [1] the target is T1, Cynomolgus CD3 epsilon protein (cynomolgus monkey, UniProt Q95LI5 22-117).
T1 construct: extracellular domain; The method names a bought protein (Acro # CDE-05226), the result names W331-cynoProl.ECD.His; also called W331-cynoProl.ECD.His; Acro # CDE-05226; not shown: His tag by the construct's name
T1 sequence (looked up): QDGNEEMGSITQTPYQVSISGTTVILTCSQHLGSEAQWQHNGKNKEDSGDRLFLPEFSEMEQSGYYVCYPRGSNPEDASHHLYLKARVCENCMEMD
Briefly: ELISA on coated cynomolgus CD3 epsilon protein. The protocol: The binding of the CD3×CD19 bispecific antibody to cynomolgus CD3 were tested by protein binding ELISA. 96-well high protein binding ELISA plates (Nunc MaxiSorp, ThermoFisher, Thermo-442404) were coated overnight at 4° C. with 100 ul of 1 μg/ml Cynomolgus CD3 epsilon protein (Acro, # CDE-05226) in Carbonate-bicarbonate buffer (20 mM Na2CO3, 180 mM NaHCO₃, PH9.2). All wells were washed one time with 300 μL per well of PBS/0.5% Tween-20 (v/v). The wells were then blocked for one hour at room temperature with 200 μL per well of PBS/2% BSA (BOVOGEN, # BSAS) and washed three times with 300 μL per well of PBS/0.5% Tween-20 (v/v). For the primary antibody binding, CD3×CD19 bispecific antibody serially diluted in PBS/2% BSA were added to the relevant wells and incubated at room temperature for two hours. Plates were washed three times like before prior to the addition of 100 ul of 100 ng/ml secondary antibody Goat-anti-human IgG Fc-HRP (Bethyl, # A80-304P). Plates were incubated at room temperature for one hour, followed by six washes as described above. […] The extent of bispecific antibody binding to cynomolgus CD3 was determined by measuring the OD450 absorbance using the SpectraMax® M5e microplate reader. […]

A further experiment has as its target T2, FcγRIIb (UniProt P31994 46-217, limits assumed).
T2 sequence (looked up): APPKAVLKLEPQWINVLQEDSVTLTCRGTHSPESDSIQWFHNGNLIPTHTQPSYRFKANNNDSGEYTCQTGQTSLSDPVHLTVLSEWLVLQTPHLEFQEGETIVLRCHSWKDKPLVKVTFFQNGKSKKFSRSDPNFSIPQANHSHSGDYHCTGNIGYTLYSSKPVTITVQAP
Briefly: SPR (Biacore), receptor captured on anti-his chip, antibody injected, steady state fit. The protocol: Antibody binding affinity to FcγRs was detected using Biacore T200 (or Biacore 8K). Each receptor was captured on an anti-his antibody immobilized CMS sensor chip (GE). Antibodies at different concentrations were injected over the sensor chip at a flow rate of 30 uL/min for an association phase of 60 s, followed by 60 s dissociation. The chip was then regenerated by 10 mM glycine (pH 1.5) after each binding cycle.
The sensorgrams of blank surface and buffer channel were subtracted from the test sensorgrams. The experimental data was fitted by 1:1 model using Langmiur analysis (for FcγRI) or steady state model (for other receptors). A molecular weight of 150 KDa was used to calculate the molar concentration of antibodies.

The next experiment addresses FcRn (UniProt P55899 24-297; P61769 21-119, limits assumed). Briefly: SPR (Biacore) at pH 6.0, antibody immobilized, FcRn injected, steady state fit. The protocol: Antibody binding affinity to FcRn was detected using Biacore T200 (or Biacore 8K). Each antibody was immobilized on CMS sensor chip (GE). FcRn at different concentrations in running buffer (50 mM Na2HPO4/NaH2PO4, 150 mM NaCl, 0.05% Tween20, pH 6.0) were injected over the sensor chip at a flow rate of 30 uL/min for an association phase of 60 s, followed by 60 s dissociation. The chip was then regenerated by 1×PBS (pH 7.4) after each binding cycle.
The binding of W3438-T3U4.E17-1.uIgG4.SP to FcRn was tested by SPR at pH 6.0.
For orientation: Surface plasmon resonance follows binding to a sensor surface in real time, without labels.

For experiment [2], the target named is T3, human CD19 (human, UniProt P15391 20-556).
T3 construct: whole, on cells; also called CD19 on Ramos cells; CD19 on Raji cells
T3 sequence (looked up): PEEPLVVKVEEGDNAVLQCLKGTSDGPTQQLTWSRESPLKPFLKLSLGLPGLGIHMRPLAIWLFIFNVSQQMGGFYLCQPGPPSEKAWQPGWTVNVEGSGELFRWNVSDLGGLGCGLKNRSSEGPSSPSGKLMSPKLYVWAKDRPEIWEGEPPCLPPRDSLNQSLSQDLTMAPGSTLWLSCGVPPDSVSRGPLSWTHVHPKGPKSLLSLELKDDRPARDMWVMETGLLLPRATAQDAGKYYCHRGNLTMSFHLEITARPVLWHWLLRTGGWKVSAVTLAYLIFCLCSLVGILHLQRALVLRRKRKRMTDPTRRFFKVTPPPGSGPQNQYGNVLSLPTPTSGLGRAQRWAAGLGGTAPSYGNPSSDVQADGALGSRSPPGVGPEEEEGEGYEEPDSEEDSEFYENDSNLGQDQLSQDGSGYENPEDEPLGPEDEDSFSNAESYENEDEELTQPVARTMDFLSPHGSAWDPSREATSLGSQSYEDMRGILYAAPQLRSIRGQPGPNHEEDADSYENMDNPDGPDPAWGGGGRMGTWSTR
Kind of experiment: flow cytometry on Ramos cells. On the technique in general: Flow cytometry measures light scatter and fluorescence of single cells or particles in a stream.

In experiment [3] the target is T3, human CD19. Kind of experiment: flow cytometry affinity on Ramos cells, bound/free versus bound plot; Ramos cells, CD19. How it is done:
Binding affinity to CD3 and CD19 was determined by flow cytometry using Jurkat and Ramos cells, respectively. The cells were transferred in to 96-well U-bottom plates (BD) at a density of 5×10⁴ cells/well. Antibodies to be tested were 1:2-fold serially diluted in 1% 1×PBS/1% BSA and incubated with cells at 4° C. for 1 hr. Then, the plates were centrifuged at 1500 rpm for 4 mins and the supernatant discarded. The secondary antibody, Alexa647 conjugated goat anti-human IgG Fc (Jackson, Cat #109-605-098) or FITC conjugated goat anti-His (Bethyl, Cat # A190-113F) was added to re-suspended cells and incubated at 4° C. in the dark for 30 min. The cells were washed once and re-suspended in 100 μL 1×PBS/1% BSA. Fluorescence intensity was measured by flow cytometry (BD Canto II) and analyzed by FlowJo. Fluorescence intensity was converted to bound molecules/cell based on the quantitative beads (Quantum™ MESF Kits, Bangs Laboratories). KD was calculated by Graphpad Prism5.
The binding affinity of W3438-T3U4.E17-1.uIgG4.SP to human CD19 and CD3 was tested on Ramos and Jurkat cells by flow cytometry. The bound IgG/free IgG versus bound IgG was plotted in FIGS. 14A-14B.

What is called EC50 is the midpoint of the concentration-response curve. In general, Kd refers to a measure of binding affinity in units of concentration. Low values mean tighter binding, high ones weaker binding.

Sequence of FcRn (P55899 24-297 limits assumed, chain 1 of 2): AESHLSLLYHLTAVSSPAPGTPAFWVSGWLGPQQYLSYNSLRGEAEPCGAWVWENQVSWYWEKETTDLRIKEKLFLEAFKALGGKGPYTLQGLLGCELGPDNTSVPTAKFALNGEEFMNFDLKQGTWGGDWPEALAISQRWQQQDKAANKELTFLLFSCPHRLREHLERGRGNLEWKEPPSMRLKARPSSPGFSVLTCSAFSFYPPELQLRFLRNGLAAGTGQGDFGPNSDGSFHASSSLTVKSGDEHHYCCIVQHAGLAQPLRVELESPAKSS
Sequence of FcRn (P61769 21-119 limits assumed, chain 2 of 2): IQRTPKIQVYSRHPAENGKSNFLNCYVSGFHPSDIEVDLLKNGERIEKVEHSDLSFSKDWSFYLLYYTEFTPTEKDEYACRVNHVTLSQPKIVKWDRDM

B1: W3438-T3U4.E17-1.uIgG4.SP (bispecific antibody)
light 1: DIVMTQSPDSLAVSLGERATINCKSSQSLLNSRTRKNYLAWYQQKPGQPPKLLIYWASTRQSGVPDRFSGSGSGTDFTLTISSLQAEDVAVYYCTQSHTLRTFGGGTKVEIKPDIQNPDPAVYQLRDSKSSDKSVCLFTDFDSQTQVSQSKDSDVYITDKCVLDMRSMDFKSNSAVAWSQKSDFACANAFQNSIIPEDTFFPSPESS
heavy 1: QVQLVQSGAEVKKPGSSVKVSCKASGFAFTDYYIHWVRQAPGQGLEWMGWISPGNVNTKYNENFKGRVTITADKSTSTAYMELSSLRSEDTAVYYCARDGYSLYYFDYWGQGTLVTVLEDLKNVFPPEVAVFEPSEAEISHTQKATLVCLATGFYPDHVELSWWVNGKEVHSGVCTDPQPLKEQPALQDSRYALSSRLRVSATFWQNPRNHFRCQVQFYGLSENDEWTQDRAKPVTQIVSAEAWGRYGPPCPPCPAPEFLGGPSVFLFPPKPKDTLMISRTPEVTCVVVDVSQEDPEVQFNWYVDGVEVHNAKTKPREEQFNSTYRVVSVLTVLHQDWLNGKEYKCKVSNKGLPSSIEKTISKAKGQPREPQVYTLPPCQEEMTKNQVSLWCLVKGFYPSDIAVEWESNGQPENNYKTTPPVLDSDGSFFLYSRLTVDKSRWQEGNVFSCSVMHEALHNHYTQKSLSLSLGK
light 2: DIQLTQSPSFLSASVGDRVTITCSASSTVNYMHWYQQKPGKAPKLLIYSTSNLASGVPSRFSGSGSGTEFTLTISSLQPEDFATYYCHQWSSYPYTFGQGTKLEIKRTVAAPSVFIFPPSDEQLKSGTASVVCLLNNFYPREAKVQWKVDNALQSGNSQESVTEQDSKDSTYSLSSTLTLSKADYEKHKVYACEVTHQGLSSPVTKSFNRGEC
heavy 2: QMQLVQSGPEVKKPGTSVKVSCKASGYAFTSYNMYWVRQARGQRLEWIGYIDPYNGDTTYNQKFKGRVTITRDMSTSTAYMELSSLRSEDTAVYYCLTTAYAMDYWGQGTLVTVSSASTKGPSVFPLAPCSRSTSESTAALGCLVKDYFPEPVTVSWNSGALTSGVHTFPAVLQSSGLYSLSSVVTVPSSSLGTKTYTCNVDHKPSNTKVDKRVESKYGPPCPPCPAPEFLGGPSVFLFPPKPKDTLMISRTPEVTCVVVDVSQEDPEVQFNWYVDGVEVHNAKTKPREEQFNSTYRVVSVLTVLHQDWLNGKEYKCKVSNKGLPSSIEKTISKAKGQPREPQVCTLPPSQEEMTKNQVSLSCAVKGFYPSDIAVEWESNGQPENNYKTTPPVLDSDGSFFLVSRLTVDKSRWQEGNVFSCSVMHEALHNHYTQKSLSLSLGK
notes: Bispecific, bivalent: one anti-CD3 arm with TCR constant domains and one native anti-CD19 Fab arm, IgG4 S228P Fc with knobs-into-holes; also called WBP3438; CD3×CD19 bispecific antibody; copies: 1 + 1 + 1 + 1
B1: the EC50 in experiment [1] amounted to 0.04 nM; with human CD19 [2], 15.6 nM. For the same molecule, the Kd was 24100 nM with FcγRIIb, 2580 nM in the experiment with FcRn and 23 nM with human CD19 [3].

These data come from US20200283523A1 (WUXI BIOLOGICS IRELAND, published 2020).
